{"source": "patent US20200062863A1", "about": "(CSL BEHRING, published 2020)", "key": {"[1]": {"biological_target": "T1, human Factor XIIa-alpha (human, UniProt P00748 20-615)", "T1 sequence": "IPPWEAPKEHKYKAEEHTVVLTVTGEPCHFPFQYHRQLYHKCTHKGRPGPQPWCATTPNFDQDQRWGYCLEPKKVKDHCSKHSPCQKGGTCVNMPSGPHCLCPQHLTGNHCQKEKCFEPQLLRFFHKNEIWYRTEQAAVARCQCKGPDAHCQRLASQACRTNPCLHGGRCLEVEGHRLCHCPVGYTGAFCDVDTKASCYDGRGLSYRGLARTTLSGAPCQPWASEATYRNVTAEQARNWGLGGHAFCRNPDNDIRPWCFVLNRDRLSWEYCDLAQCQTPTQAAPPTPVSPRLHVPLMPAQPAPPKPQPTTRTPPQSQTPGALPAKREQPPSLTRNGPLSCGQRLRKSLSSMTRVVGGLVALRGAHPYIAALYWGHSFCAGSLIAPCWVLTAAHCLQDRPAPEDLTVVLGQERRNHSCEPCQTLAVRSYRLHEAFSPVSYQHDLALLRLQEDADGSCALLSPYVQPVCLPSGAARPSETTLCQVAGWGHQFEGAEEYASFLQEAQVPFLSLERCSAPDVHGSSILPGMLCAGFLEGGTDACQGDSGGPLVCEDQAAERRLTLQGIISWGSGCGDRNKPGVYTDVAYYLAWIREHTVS", "assay": "cell-based or functional assay"}, "[2]": {"biological_target": "T2, human Factor XIIa-beta (human, UniProt P00748 354-615, limits assumed)", "T2 construct": "Bought from Enzyme Research Laboratories; also called FXIIa beta; FXIIa-beta", "T2 sequence": "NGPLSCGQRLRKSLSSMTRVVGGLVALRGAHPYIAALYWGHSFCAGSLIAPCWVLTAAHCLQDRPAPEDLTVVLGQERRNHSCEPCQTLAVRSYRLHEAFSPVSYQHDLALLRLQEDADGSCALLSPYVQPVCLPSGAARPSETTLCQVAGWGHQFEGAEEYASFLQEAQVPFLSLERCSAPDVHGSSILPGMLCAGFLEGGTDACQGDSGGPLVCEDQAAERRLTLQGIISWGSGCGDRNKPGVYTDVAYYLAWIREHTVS", "assay": "SPR (Biacore), purified IgG captured on anti-mouse Fc antibody, FXIIa beta 0-40 nM, 1:1 fit, 25 C"}, "[3]": {"biological_target": "T3, human Factor XII (human, UniProt P00748 20-615)", "T3 construct": "Zymogen bought from Enzyme Research Laboratories; also called FXII", "T3 sequence": "T1 sequence", "assay": "SPR (Biacore), purified IgG captured on anti-mouse Fc antibody, FXII 0-500 nM, 1:1 fit, 25 C"}, "[4]": {"biological_target": "T4, human FXIIa (human, UniProt P00748 20-615, limits assumed)", "T4 sequence": "T1 sequence"}}, "note": "“And” between values parts separate entries of the source, which are not always exact repeats. Equal values may be shown once."}
{"substance": "Anti-human FXII antibody (OT-2)", "values": [{"measurement": "% Inhibition, ratio FXIIa-alpha:Antibody 1:0.1", "setting": "[1]", "value": 21.6, "unit": "%"}, {"measurement": "% Inhibition, ratio FXIIa-alpha:Antibody 1:0.2", "setting": "[1]", "value": 37.7, "unit": "%"}, {"measurement": "% Inhibition, ratio FXIIa-alpha:Antibody 1:0.5", "setting": "[1]", "value": 76.6, "unit": "%"}, {"measurement": "% Inhibition, ratio FXIIa-alpha:Antibody 1:1", "setting": "[1]", "value": 92.7, "unit": "%"}, {"measurement": "% Inhibition, ratio FXIIa-alpha:Antibody 1:2", "setting": "[1]", "value": 96.9, "unit": "%"}, {"measurement": "% Inhibition, ratio FXIIa-alpha:Antibody 1:5", "setting": "[1]", "value": 100, "unit": "%"}, {"measurement": "% Inhibition, ratio FXIIa-alpha:Antibody 1:10", "setting": "[1]", "value": 100, "unit": "%"}, {"measurement": "Kd", "setting": "[2]", "value": 760, "unit": "pM"}, {"measurement": "Kd", "setting": "[3]", "value": 690, "unit": "pM"}, {"measurement": "m3 (parameter of the curve fit, printed in the legend box; x axis Ab in nM) of the inhibition of FXIIa amidolytic activity, OD405", "setting": "[4]", "value": "12.9 and 13.5"}]}
